Source: patent US20110281938, “APTAMERS TO TISSUE FACTOR PATHWAY INHIBITOR AND THEIR USE AS BLEEDING DISORDER THERAPEUTICS” (Baxter Healthcare S.A., published 2011)

What was measured:
[1] = biological target: Factor Xa (UniProt P00742;P00742 P00742:41-179,P00742:235-488); assay: filter; no significant affinity up to 0.5-1 uM; conditions: label: radiolabel
[2] = biological target: Factor Va (UniProt P12259;P12259 P12259:29-737,P12259:1574-2224); assay: filter; no significant affinity up to 0.5-1 uM; conditions: label: radiolabel
[3] = biological target: Plasmin (UniProt P00747;P00747 P00747:97-580,P00747:581-810); assay: filter; no significant affinity up to 0.5-1 uM; conditions: label: radiolabel
[4] = biological target: Prothrombin (UniProt P00734 P00734:44-622); assay: filter; no significant affinity up to 0.5-1 uM; conditions: label: radiolabel
[5] = biological target: alpha-1 antitrypsin (serpin-A1) (UniProt P01009 P01009:25-418); assay: filter; no significant affinity up to 0.5-1 uM; conditions: label: radiolabel
[6] = biological target: Factor VIIa (UniProt P08709;P08709 P08709:61-212,P08709:213-466); assay: filter; no significant affinity up to 0.5-1 uM; conditions: label: radiolabel
[7] = biological target: Antithrombin (ATIII) (UniProt P01008 P01008:33-464); assay: filter; no significant affinity up to 0.5-1 uM; conditions: label: radiolabel
[8] = biological target: Kallikrein (UniProt P03952;P03952 P03952:20-390,P03952:391-638); assay: filter; no significant affinity up to 0.5-1 uM; conditions: label: radiolabel
[9] = biological target: T1, Heparin cofactor II (UniProt P05546 P05546:20-499); assay: filter; no significant affinity up to 0.5-1 uM; conditions: label: radiolabel
T1 sequence: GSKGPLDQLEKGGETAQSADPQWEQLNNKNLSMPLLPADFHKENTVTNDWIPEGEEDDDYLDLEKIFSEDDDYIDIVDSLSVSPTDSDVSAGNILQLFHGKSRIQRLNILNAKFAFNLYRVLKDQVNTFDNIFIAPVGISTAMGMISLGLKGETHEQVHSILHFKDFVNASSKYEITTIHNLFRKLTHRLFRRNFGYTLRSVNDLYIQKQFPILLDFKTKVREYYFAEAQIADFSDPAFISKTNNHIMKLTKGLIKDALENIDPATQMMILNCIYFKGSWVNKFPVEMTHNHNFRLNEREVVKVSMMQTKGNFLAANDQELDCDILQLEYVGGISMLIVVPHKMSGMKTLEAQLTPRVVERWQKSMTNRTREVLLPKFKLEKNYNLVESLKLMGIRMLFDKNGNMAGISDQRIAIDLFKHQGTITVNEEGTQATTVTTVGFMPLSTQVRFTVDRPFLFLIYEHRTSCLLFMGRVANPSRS

[10] = biological target: Factor XIa (UniProt P03951;P03951 P03951:19-387,P03951:388-625); assay: filter; no significant affinity up to 0.5-1 uM; conditions: chain copies: 2; label: radiolabel
[11] = biological target: alpha-Thrombin (UniProt P00734;P00734 P00734:328-363,P00734:364-622); assay: filter; no significant affinity up to 0.5-1 uM
[12] = biological target: Factor IXa (UniProt P00740;P00740 P00740:47-191,P00740:227-461); assay: filter; no significant affinity up to 0.5-1 uM; conditions: label: radiolabel
[13] = biological target: T2, TFPI-2 (UniProt P48307 P48307:23-235); assay: filter; no significant affinity up to 0.5-1 uM; conditions: label: radiolabel
T2 sequence: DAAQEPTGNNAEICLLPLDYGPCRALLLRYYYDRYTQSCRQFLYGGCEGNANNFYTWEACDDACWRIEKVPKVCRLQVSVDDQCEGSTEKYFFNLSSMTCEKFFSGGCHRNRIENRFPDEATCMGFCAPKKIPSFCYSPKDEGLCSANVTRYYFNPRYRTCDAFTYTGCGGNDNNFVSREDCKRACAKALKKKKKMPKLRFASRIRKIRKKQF

[14] = biological target: Truncated TFPI-K1K2 (UniProt P10646 SEQ:1-161); assay: filter; no detectable binding up to 500 nM; conditions: tags: American Diagnostica, E. coli expressed; label: radiolabel
Description: Trace amounts of radiolabeled ARC17480 were incubated with different concentrations of truncated TFPI-K1K2 (500 nM-0.008 nM) and the K3-C-terminal domain protein (500 nM-0.7 nM) (Table 1). […] Trace amounts of radiolabeled ARC17480 were incubated with different concentrations of the C-terminal peptide (10 μM-0.17 nM) (Table 1). Neutravidin (˜100 nM monomer) was then added to the binding solution to assist in the capture of aptamer:peptide complexes on a nitrocellulose filter. The amount of radiolabeled aptamer captured on a nitrocellulose filter was quantitated and compared to the total amount of radiolabeled aptamer to generate a binding curve, which is shown in FIG. 17B.

[15] = biological target: T3, TFPI (tissue factor pathway inhibitor, full-length) (Homo sapiens, UniProt P10646 SEQ:1-276); assay: competition; dot-blot vs radiolabeled ARC17480, 10 nM TFPI; conditions: tags: American Diagnostica 4500PC/4900PC, E. coli expressed
Description: Each molecule was evaluated for binding to tissue factor pathway inhibitor (TFPI) in a binding-competition assay. For these experiments, 10 nM human TFPI (American Diagnostica, Stamford, Conn., catalog #4500PC) was incubated with trace amounts of radiolabeled ARC17480 and 5000 nM, 1666.67 nM, 555.56 nM, 185.19 nM, 61.73 nM, 20.58 nM, 6.86 nM, 2.29 nM, 0.76 nM or 0.25 nM of unlabeled competitor aptamer. ARC17480 was included as a competitor in every experiment as a control. For each molecule, the percentage of radiolabeled ARC17480 bound at each competitor aptamer concentration was used for analysis. The percentage of radiolabeled ARC17480 bound was plotted as a function of aptamer concentration and fit to the equation y=(max/(1+x/IC₅₀))+int, where y=the percentage of radiolabeled ARC17480 bound, x=the concentration of aptamer, max=the maximum radiolabeled ARC17480 bound, and int=the y-intercept, to generate an IC₅₀ value for binding-competition. The IC₅₀ of each aptamer was compared to the IC₅₀ of ARC17480 that was evaluated in the same experiment. A substitution was considered tolerated in the binding-competition assay if the IC₅₀ of that molecule was not more than 5-fold greater than that of ARC17480 evaluated in the same experiment. Tolerated substitutions are indicated in Table 37 as meeting the assay criteria (“yes”) or not meeting the assay criteria (“no”).

[16] = biological target: T3, TFPI (tissue factor pathway inhibitor, …); assay: competition; dot-blot, 10 nM TFPI; conditions: tags: American Diagnostica 4500PC/4900PC, E. coli expressed
Description: The substituted ARC17480 molecules were assayed for binding and function. The assays used for this evaluation were the calibrated automated thrombogram (CAT) assay, a dot-blot binding-competition assay and a FXa activity assay. The results of these assays are summarized in Table 40 and depicted in FIG. 147. A mutation was considered tolerated for activity if it met the criteria of at least two of the three assays that were carried out. Mutations that are tolerated (“yes”) and not tolerated (“no”) are identified in Table 40. The experimental details and the criteria used for each assay are described in the following paragraphs. The molecules described in this example were first tested in the CAT assay and the dot-blot binding-competition assay. In most cases, molecules were only tested in the FXa assay if there was a discrepancy between the results in the CAT assay and the dot-blot binding-competition assay.
Each molecule was evaluated for binding to tissue factor pathway inhibitor (TFPI) in a binding-competition assay. […] The IC₅₀ of each aptamer was compared to the IC₅₀ of ARC17480 that was evaluated in the same experiment. A mutation was considered tolerated in the binding-competition assay if the IC₅₀ of that molecule was not more than 5-fold greater than that of ARC17480 evaluated in the same experiment. […]

Binder: GGAAUAUACUUGGCUCGUUAGGUGCGUAUAUA (mixed, 2'-OMe A/G/U, 2'-deoxy C, 3' idT) [ARC17480]
- binding result [1]: no binding
- binding result [2]: no binding
- binding result [3]: no binding
- binding result [4]: no binding
- binding result [5]: no binding
- binding result [6]: no binding
- binding result [7]: no binding
- binding result [8]: no binding
- binding result [9]: no binding
- binding result [10]: no binding
- binding result [11]: no binding
- binding result [12]: no binding
- binding result [13]: no binding
- binding result [14]: no binding

Binder: GGAAUAUACUUGGCUCGUUAGGUGCGUAUAUA (XNA, 2'-OMe except dC9, dC16, dC25; 2'-OMe C14; 3' idT) [ARC18539]
- binding signal [15]: ≤ 5 fold IC50 vs ARC17480

Binder: AGAAUAUACUUGGCUCGUUAGGUGCGUAUAUA (XNA, 2'-OMe except dC9, dC14, dC16, dC25; 3' idT) [ARC34856]
- binding signal [16]: ≤ 5 fold IC50 vs ARC17480
